Reference: patent US20090196877A1

Target: SIINFEKL/H-2 Kb (mouse) (UniProt P01901)

expression of the cell surface markers CD44, CD69 and CD25 on OT-1 cells after stimulation with irradiated CD80/EG7: 100%
Substance: OT-1 T cell Receptor (TCR) of OT-1 TCR transgenic T cells
